What all share (assay): SPR, calculated KD (Qdat software)
In test [1] the target is T1, Aβ42 oligomers (ADDLs/globulomers) (UniProt P05067 672-713).
T1 construct: domain: Aβ42; Oligomeric conformer of Aβ42; also called amyloid beta derived diffusible ligands
The protocol:
(§1) MAb binding to Aβ42 conformers was measured by surface plasma resonance (SPR) (Table 1). Calculated affinity constants (KD) were obtained using Qdat software. […] The 3H3 binding data is qualitatively most similar to the 4G1 and 6E10 mAbs. 4A6 and 2C10 preferentially bind Aβ fibrils.

Test [2] concerns the target T2, Aβ42 fibrils (UniProt P05067 672-713).
T2 construct: domain: Aβ42; Fibrillar conformer of Aβ42; also called Aβ fibrils
The protocol: as §1

Test [3] concerns the target T3, C-terminal biotinylated Aβ42 monomers (UniProt P05067 672-713, C-terminal biotin).
T3 construct: domain: Aβ42; also called CTB mono
The protocol:
as §1

Test [4] has as its target T4, N-terminal biotinylated Aβ42 monomers (UniProt P05067 672-713, N-terminal biotin).
T4 construct: domain: Aβ42; also called NTB mono
The protocol:
as §1

The target of test [5] is T5, C-terminal biotinylated Aβ42 ADDLs/globulomers (UniProt P05067 672-713, C-terminal biotin).
T5 construct: domain: Aβ42; also called CTB oligo
T5 sequence (P05067 672-713 limits assumed): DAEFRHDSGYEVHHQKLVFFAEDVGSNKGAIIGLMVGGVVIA
The protocol: as §1

T3 sequence (P05067 672-713 limits assumed): as above
T1 sequence (P05067 672-713 limits assumed): as above
T2 sequence (P05067 672-713 limits assumed): as above
T4 sequence (P05067 672-713 limits assumed): as above

B1: ALZ.4A6 (antibody, V domains shown)
VH: QVQLVQSGAEVKKPGASMRVSCKASGYTYTAYYIHWMRQAPGQGLEWMGWINPHIGSTNYAEKFRGRVTLTRDTSIKTAYMDLDRLTSDDTAIYYCARVRAPRSISGTLNSYGMDVWGQGTTVAVSS
VL: DIVMTQSPSSLSASVGDRVVITCRASLRIGTFLNWYQQTQGRAPKLLVSSASTLQSGVPSRFSGSGSGTDFTLTINSLQPEDFATYYCQQSYSTTWTFGQGTKVELK
notes: Human mAb cloned from hybridomas made from B cells of a patient with Alzheimer's Disease
One may read the Kd as the constant that tells how readily two partners part at equilibrium. Take B1: the Kd is 1300 nM in test [1], 11 nM in test [2] and 16 nM in test [3].

B2: ALZ.3H3 (antibody, V domains shown)
VH: QVQLVESGGGVVQPGRSLRLSCAASGFSFSTYGMHWVRQAPGKGLEWVAVISYDGSRKYYADTGKGRFTISRDNSKNTLYLEMNGLRAEDTAVYHCAKDLRRELGFGNRDYHYYGMDAWGQGTTVTVSS
VL: LTQPRSVSGSPGQSVTMSCTGTNSDIGGYNYVSWYQQHPGKAPKLMIYDVYKRPSGVPDRFSGSKSGNTASLTISGLQAEDEADYYCCSYAGTNNLIFGGGTKLTVLG
With B2, the Kd is 240 nM in test [4]; 40 nM in test [1]; 2.1 nM in test [2]; 35 nM in test [5]; 3.4 nM in test [3].

B3: ALZ.4G1 (antibody, V domains shown)
VH: EEHLVESGGALVQPGGSLRLSCEASGFTFRSYWMTWVRQAPGKGLEWLANIKQDGSDYYYVDSVKGRFTISRDNAKNTLYLQMNNLRADDTAVYFCARDARYRDTTWPQYYFYYFMDVWGKGTTVTVSS
VL: DIQLTQSPSSLSASIGDRVTVTCRASQSISNYLNWYQQKPGKAPKLLIYAASNLHTGVPSRFSGSGSGTHFTLTISSLQPEDFATYYCQLSYNNPRTFGPGTTVDIR
notes: as for B1
In the case of B3, the Kd is 1700 nM in test [4]; 8.8 nM in test [1]; 14 nM in test [2]; 11.4 nM in test [5]; 15 nM in test [3].

These data come from patent US20220227846A1 (TEMPLE UNIVERSITY OF THE COMMONWEALTH SYSTEM OF HIGHER …, published 2022).
